According to US20240092890A1 (JUNTENDO EDUCATIONAL FOUNDATION, published 2024):

B1: Antibody 16 (bispecific antibody)
heavy: QVQLQQSGAELVKPGSSVKISCKASGYTFTRNFIHWIKQQPGNGLEWIGWIFPGDGDTEYNQKFNGKATLTADKSSSTAYMQLSSLTSEDSAVYFCARGNYNYEYFDYWGQGVMVTVSSASTKGPSVFPLAPSSKSTSGGTAALGCLVKDYFPEPVTVSWNSGALTSGVHTFPAVLQSSGLYSLSSVVTVPSSSLGTQTYICNVNHKPSNTKVDKRVEPKSCGGGGSQVQLVQSGGGVVQPGRSLRLSCKASGYTFTRYTMHWVRQAPGKGLEWIGYINPSRGYTNYNQKVKDRFTISRDNSKNTAFLQMDSLRPEDTGVYFCARYYDDHYSLDYWGQGTPVTVSSGGGGSGGGGSGGGGSDIQMTQSPSSLSASVGDRVTITCSASSSVSYMNWYQQTPGKAPKRWIYDTSKLASGVPSRFSGSGSGTDYTFTISSLQPEDIATYYCQQWSSNPFTFGQGTKLQITRHHHHHH
light: DIQMTQSPASLSASLGETVSIECLASEDIYSYLAWYQQKPGKSPQLLIFAANRLQDGVPSRFSGSGSGTQFSLKISGMQPEDEGDYFCLQGSKFPYTFGPGTKLELNRTVAAPSVFIFPPSDEQLKSGTASVVCLLNNFYPREAKVQWKVDNALQSGNSQESVTEQDSKDSTYSLSSTLTLSKADYEKHKVYACEVTHQGLSSPVTKSFNRGEC
notes: B3 Fab with hOKT3 scFv fused to the Fab heavy chain C-terminus
B2: Antibody 19 (bispecific antibody)
heavy: QVQLQQSGAELVKPGSSVKISCKASGYTFTRNFIHWIKQQPGNGLEWIGWIFPGDGDTEYNQKFNGKATLTADKSSSTAYMQLSSLTSEDSAVYFCARGNYNYEYFDYWGQGVMVTVSSASTKGPSVFPLAPSSKSTSGGTAALGCLVKDYFPEPVTVSWNSGALTSGVHTFPAVLQSSGLYSLSSVVTVPSSSLGTQTYICNVNHKPSNTKVDKRVEPKSCGGGGSQVQLVQSGGGVVQPGRSLRLSCKASGYTFTRYTMHWVRQAPGKGLEWIGYINPSRGYTNYNQKVKDRFTISRDNSKNTAFLQMDSLRPEDTGVYFCARYYDDHYSLDYWGQGTPVTVSSGGGGSGGGGSGGGGSDIQMTQSPSSLSASVGDRVTITCSASSSVSYMNWYQQTPGKAPKRWIYDTSKLASGVPSRFSGSGSGTDYTFTISSLQPEDIATYYCQQWSSNPFTFGQGTKLQITRGGGGSQVQLQQSGAELVKPGSSVKISCKASGYTFTRNFIHWIKQQPGNGLEWIGWIFPGDGDTEYNQKFNGKATLTADKSSSTAYMQLSSLTSEDSAVYFCARGNYNYEYFDYWGQGVMVTVSSASTKGPSVFPLAPSSKSTSGGTAALGCLVKDYFPEPVTVSWNSGALTSGVHTFPAVLQSSGLYSLSSVVTVPSSSLGTQTYICNVNHKPSNTKVDKRVEPKSCHHHHHH
light: B1 light
notes: B3 Fab heavy chain, hOKT3 scFv and a second B3 Fab heavy chain in one polypeptide, with the B3 light chain
B3: Antibody 18 (bispecific antibody)
heavy: QVQLQQSGAELVKPGSSVKISCKASGYTFTRNFIHWIKQQPGNGLEWIGWIFPGDGDTEYNQKFNGKATLTADKSSSTAYMQLSSLTSEDSAVYFCARGNYNYEYFDYWGQGVMVTVSSASTKGPSVFPLAPSSKSTSGGTAALGCLVKDYFPEPVTVSWNSGALTSGVHTFPAVLQSSGLYSLSSVVTVPSSSLGTQTYICNVNHKPSNTKVDKRVEPKSCGGGGSQVQLVQSGGGVVQPGRSLRLSCKASGYTFTRYTMHWVRQAPGKGLEWIGYINPSRGYTNYNQKVKDRFTISRDNSKNTAFLQMDSLRPEDTGVYFCARYYDDHYSLDYWGQGTPVTVSSGGGGSGGGGSGGGGSDIQMTQSPSSLSASVGDRVTITCSASSSVSYMNWYQQTPGKAPKRWIYDTSKLASGVPSRFSGSGSGTDYTFTISSLQPEDIATYYCQQWSSNPFTFGQGTKLQITRAAAGGGQPREPQVYTLPPSREEMTKNQVSLTCLVKGFYPSDIAVEWESNGQPENNYKTTPPVLDSDGSFFLYSKLTVDKSRWQQGNVFSCSVMHEALHNHYTQKSLSLSPGK
light: B1 light
notes: B3 Fab heavy chain, hOKT3 scFv and CH3 domain in one polypeptide, with the B3 light chain
B4: Antibody 17 (bispecific antibody)
heavy: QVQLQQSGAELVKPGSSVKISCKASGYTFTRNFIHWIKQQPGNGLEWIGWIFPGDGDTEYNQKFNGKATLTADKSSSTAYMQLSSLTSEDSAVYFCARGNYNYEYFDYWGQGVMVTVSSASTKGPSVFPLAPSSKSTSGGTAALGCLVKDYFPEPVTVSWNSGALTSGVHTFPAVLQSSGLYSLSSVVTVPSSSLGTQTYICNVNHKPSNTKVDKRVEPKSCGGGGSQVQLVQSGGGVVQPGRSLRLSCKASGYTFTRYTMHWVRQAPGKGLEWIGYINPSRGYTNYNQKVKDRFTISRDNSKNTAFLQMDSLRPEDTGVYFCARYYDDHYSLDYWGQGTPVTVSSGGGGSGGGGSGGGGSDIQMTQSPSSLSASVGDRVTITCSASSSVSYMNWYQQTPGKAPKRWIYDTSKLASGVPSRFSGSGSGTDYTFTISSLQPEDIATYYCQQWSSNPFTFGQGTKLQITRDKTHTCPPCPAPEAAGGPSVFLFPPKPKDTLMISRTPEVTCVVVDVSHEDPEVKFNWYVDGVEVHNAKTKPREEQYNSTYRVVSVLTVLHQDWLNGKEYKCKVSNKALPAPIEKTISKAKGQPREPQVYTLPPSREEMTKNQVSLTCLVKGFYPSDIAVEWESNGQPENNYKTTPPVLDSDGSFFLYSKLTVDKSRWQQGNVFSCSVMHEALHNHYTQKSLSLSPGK
light: B1 light
notes: B3 Fab heavy chain, hOKT3 scFv and Fc in one polypeptide, with the B3 light chain
B5: Antibody 22 (bispecific antibody)
heavy: QVQLVQSGGGVVQPGRSLRLSCKASGYTFTRYTMHWVRQAPGKGLEWIGYINPSRGYTNYNQKVKDRFTISRDNSKNTAFLQMDSLRPEDTGVYFCARYYDDHYSLDYWGQGTPVTVSSGGGGSGGGGSGGGGSDIQMTQSPSSLSASVGDRVTITCSASSSVSYMNWYQQTPGKAPKRWIYDTSKLASGVPSRFSGSGSGTDYTFTISSLQPEDIATYYCQQWSSNPFTFGQGTKLQITRGGGGSQVQLQQSGAELVKPGSSVKISCKASGYTFTRNFIHWIKQQPGNGLEWIGWIFPGDGDTEYNQKFNGKATLTADKSSSTAYMQLSSLTSEDSAVYFCARGNYNYEYFDYWGQGVMVTVSSASTKGPSVFPLAPSSKSTSGGTAALGCLVKDYFPEPVTVSWNSGALTSGVHTFPAVLQSSGLYSLSSVVTVPSSSLGTQTYICNVNHKPSNTKVDKRVEPKSCAAAGGGQPREPQVYTLPPSREEMTKNQVSLTCLVKGFYPSDIAVEWESNGQPENNYKTTPPVLDSDGSFFLYSKLTVDKSRWQQGNVFSCSVMHEALHNHYTQKSLSLSPGK
light: B1 light
notes: hOKT3 scFv, B3 Fab heavy chain and CH3 domain in one polypeptide, with the B3 light chain
B6: Antibody 20 (bispecific antibody)
heavy: QVQLVQSGGGVVQPGRSLRLSCKASGYTFTRYTMHWVRQAPGKGLEWIGYINPSRGYTNYNQKVKDRFTISRDNSKNTAFLQMDSLRPEDTGVYFCARYYDDHYSLDYWGQGTPVTVSSGGGGSGGGGSGGGGSDIQMTQSPSSLSASVGDRVTITCSASSSVSYMNWYQQTPGKAPKRWIYDTSKLASGVPSRFSGSGSGTDYTFTISSLQPEDIATYYCQQWSSNPFTFGQGTKLQITRGGGGSQVQLQQSGAELVKPGSSVKISCKASGYTFTRNFIHWIKQQPGNGLEWIGWIFPGDGDTEYNQKFNGKATLTADKSSSTAYMQLSSLTSEDSAVYFCARGNYNYEYFDYWGQGVMVTVSSASTKGPSVFPLAPSSKSTSGGTAALGCLVKDYFPEPVTVSWNSGALTSGVHTFPAVLQSSGLYSLSSVVTVPSSSLGTQTYICNVNHKPSNTKVDKRVEPKSCHHHHHH
light: B1 light
notes: hOKT3 scFv fused to the N-terminus of the B3 Fab heavy chain
B7: Antibody 11 (bispecific antibody)
chain: QVQLVQSGGGVVQPGRSLRLSCKASGYTFTRYTMHWVRQAPGKGLEWIGYINPSRGYTNYNQKVKDRFTISRDNSKNTAFLQMDSLRPEDTGVYFCARYYDDHYSLDYWGQGTPVTVSSGGGGSGGGGSGGGGSDIQMTQSPSSLSASVGDRVTITCSASSSVSYMNWYQQTPGKAPKRWIYDTSKLASGVPSRFSGSGSGTDYTFTISSLQPEDIATYYCQQWSSNPFTFGQGTKLQITRGGGGSQVQLQQSGAELVKPGSSVKISCKASGYTFTRNFIHWIKQQPGNGLEWIGWIFPGDGDTEYNQKFNGKATLTADKSSSTAYMQLSSLTSEDSAVYFCARGNYNYEYFDYWGQGVMVTVSSGGGGSGGGGSGGGGSDIQMTQSPASLSASLGETVSIECLASEDIYSYLAWYQQKPGKSPQLLIFAANRLQDGVPSRFSGSGSGTQFSLKISGMQPEDEGDYFCLQGSKFPYTFGPGTKLELNHHHHHH
B8: Antibody 25 (bispecific antibody)
heavy: QVQLQQSGAELVKPGSSVKISCKASGYTFTRNFIHWIKQQPGNGLEWIGWIFPGDGDTEYNQKFNGKATLTADKSSSTAYMQLSSLTSEDSAVYFCARGNYNYEYFDYWGQGVMVTVSSASTKGPSVFPLAPSSKSTSGGTAALGCLVKDYFPEPVTVSWNSGALTSGVHTFPAVLQSSGLYSLSSVVTVPSSSLGTQTYICNVNHKPSNTKVDKRVEPKSCAAAGGGQPREPQVYTLPPSREEMTKNQVSLTCLVKGFYPSDIAVEWESNGQPENNYKTTPPVLDSDGSFFLYSKLTVDKSRWQQGNVFSCSVMHEALHNHYTQKSLSLSPGK
light: QVQLVQSGGGVVQPGRSLRLSCKASGYTFTRYTMHWVRQAPGKGLEWIGYINPSRGYTNYNQKVKDRFTISRDNSKNTAFLQMDSLRPEDTGVYFCARYYDDHYSLDYWGQGTPVTVSSGGGGSGGGGSGGGGSDIQMTQSPSSLSASVGDRVTITCSASSSVSYMNWYQQTPGKAPKRWIYDTSKLASGVPSRFSGSGSGTDYTFTISSLQPEDIATYYCQQWSSNPFTFGQGTKLQITRGGGGSDIQMTQSPASLSASLGETVSIECLASEDIYSYLAWYQQKPGKSPQLLIFAANRLQDGVPSRFSGSGSGTQFSLKISGMQPEDEGDYFCLQGSKFPYTFGPGTKLELNRTVAAPSVFIFPPSDEQLKSGTASVVCLLNNFYPREAKVQWKVDNALQSGNSQESVTEQDSKDSTYSLSSTLTLSKADYEKHKVYACEVTHQGLSSPVTKSFNRGEC

Legend:
[1] = molecular target: T1, protein having an Fc region and a His-tag added to the N-terminus of SEQ ID NO: 1; assay: BLItz biolayer interferometry, Fc/His-SEQ ID NO: 1 protein on the biosensor
T1 construct: also called mutant CALR protein (antigen of the BLItz measurement); not shown: Fc region and His-tag at the N-terminus
T1 chain: RRMMRTKMRMRRM
Summary of the method: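 The Fc/His-tagged protein was loaded at 0.1 mg/mL onto Anti-Penta-HIS or Protein A biosensors. Antibodies were run at 500, 100 and 50 nM by biolayer interferometry, and the dissociation constant was derived from these binding curves.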

[2] = molecular target: T2, Ins 5 type mutant CALR protein on UT-7/TPO CALR Ins 5 cells (UniProt P27797 18-417); assay: cell-based or functional assay
T2 sequence (looked up): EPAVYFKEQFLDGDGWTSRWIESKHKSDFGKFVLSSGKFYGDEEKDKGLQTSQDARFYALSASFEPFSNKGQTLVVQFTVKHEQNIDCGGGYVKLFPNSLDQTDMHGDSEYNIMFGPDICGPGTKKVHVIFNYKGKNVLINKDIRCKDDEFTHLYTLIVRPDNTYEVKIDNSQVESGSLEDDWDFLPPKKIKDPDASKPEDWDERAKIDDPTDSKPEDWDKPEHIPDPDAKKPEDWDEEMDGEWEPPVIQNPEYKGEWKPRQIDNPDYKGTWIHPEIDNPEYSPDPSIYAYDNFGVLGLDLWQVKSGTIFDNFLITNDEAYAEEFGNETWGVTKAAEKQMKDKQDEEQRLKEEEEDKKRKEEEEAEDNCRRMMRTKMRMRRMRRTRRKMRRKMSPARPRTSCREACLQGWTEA

Row | Binder | Kd [1] [nM] | EC50 of cytotoxic activity (calcein release, T-LAK effector cells) [2] [nM]
1 | B1 | 2.83 | 0.334
2 | B2 | 0.728 | 3.71
3 | B3 | < 0.001 | 0.081
4 | B4 | < 0.001 | 0.046
5 | B5 | < 0.001 | 0.101
6 | B6 | 12.4 | 1.46
7 | B7 |  | 1.26
8 | B8 |  | 0.056
